Measured values from patent US20150328292A1, “CASPASE POLYPEPTIDES HAVING MODIFIED ACTIVITY AND USES THEREOF” (BELLICUM PHARMACEUTICALS, INC., priority 2014, published 2015).
Changes are numbered by the printed parent chain. Names and notes keep the numbering of the source. “Also recorded” adds a separate entry of the source. Where a SMILES comes first, the peptide text is derived from it. The star is where a group is joined. Cbz = O=C(OCc1ccccc1)*; CH2F = FC*

Assays:
[1] = tested on: F-Casp9M.I.GFPhigh-transduced T cells; experiment: annexin-V/7-AAD staining of CID-treated transduced CTLs; type: cell-based, human; details: 100 μM for 1 hour prior to adding CID
Method: CID (AP20187; ARIAD Pharmaceuticals) at indicated concentrations was added to transfected 293T cells or transduced CTLs. Adherent and nonadherent cells were harvested and washed with annexin binding buffer (BD Pharmingen, San Jose, Calif.). Cells were stained with annexin-V and 7-amino-actinomycin D (7-AAD) for 15 minutes according to the manufacturer's instructions (BD Pharmingen). Within 1 hour after staining, cells were analyzed by flow cytometry using CellQuest software (Becton Dickinson).

HEK293T/16 cells [2] = experiment: SEAP reporter-based surrogate killing assay (basal activity and AP1903 IC50); type: cell-based, human; details: for basal activity / basal signaling (in words): AP1903-independent SEAP activity, vs wild type; for relative SEAP activity Units (basal activity): no AP1903, higher SEAP = lower basal activity
Method: FIG. 45 provides a schematic of an analysis of SEAP assays. […] of the mixture was seeded onto each well of a 96-well plate. […] For the assay, 4-methylumbelliferyl phosphate substrate was hydrolyzed by SEAP to 4-methylumbelliferon, a metabolite that can be excited with 364 nm and detected with an emission filter of 448 nm. Since SEAP is used as a marker for cell viability, reduced SEAP reading corresponds with increased icaspase-9 activities.
Early passage HEK293T/16 cells (ATCC, Manassas, Va.) were maintained in IMDM, GlutaMAX™ (Life Technologies, Carlsbad, Calif.) supplemented with 10% FBS, 100 U/mL penicillin, and 100 […] until transfection in a humidified, 37° C., 5% CO2/95% air atmosphere. Cells in logarithmic-phase growth were transiently transfected with 800 ng to 2 μg of expression plasmid encoding iCasp9 mutants and 500 ng of an expression plasmid encoding SRα promoter driven SEAP per million cells in 15-mL conical tubes. […] GeneJammer® Transfection Reagent at a ratio of 3 μl per ug of plasmid DNA was used to transiently transfect HEK293T/16 cells in the absence of antibiotics. 100 μl or 2 mL of the transfection mixture was added to each well in 96-well or 6-well plate, respectively.
Briefly, after 65° C. heat denaturation for 45 minutes to reduce background caused by endogenous (and serum-derived) alkaline phosphatases that are sensitive to heat, 5 μl of supernatants was added to 95 μl of PBS and added to 100 μl of substrate buffer, containing 1 μl of 100 mM 4-methylumbelliferyl phosphate (4-MUP; Sigma, St. Louis, Mo.) re-suspended in 2 M diethanolamine. Hydrolysis of 4-MUP by SEAP produces a fluorescent […] with excitation/emission (355/460 nm), which can be easily measured. Assays were performed in black opaque 96-well plates to minimize fluorescence leakage between wells (FIG. 45).

PG13 packaging cells = type: cell-based
human CD3+CD19+ T cells = experiment: AP1903 dose-dependent elimination in vivo of transduced T cells in NSG mice; set-up: species or system mouse; details: NSG mice, AP1903 0-5 mg/kg i.p., spleen
Method: T cells were transduced with SFG-iCasp9-2A-ΔCD19 retrovirus and injected i.v. into immune deficient mice (NSG). […] After an additional 24 hours, mice were sacrificed and lymphocytes from the spleen (FIG. 61A) and peripheral blood (FIG. 61B) were isolated and analyzed by flow cytometry for the frequency of human CD3+CD19+ T cells.
T cells were transduced with SFG-iCasp9-D330E-2A-ΔCD19 retrovirus and injected i.v. into immune deficient mice (NSG). […] After an additional 24 hours, mice were sacrificed and lymphocytes from the spleen (A) were isolated and analyzed by flow cytometry for the frequency of human CD3+CD19+ T cells.

Activated T cells = experiment: Control of T cell proliferation in vitro over 10 days with AP1903; type: cell-based, human; details: AP1903 on days 0 and 4, 10 days
HEK293T/16 cells [3] = experiment: Western blot of protein expression and proteolysis; type: cell-based, human
Method: The lysates were collected and lysed on ice for 30 min. After pelleting cell debris, protein concentrations from overlying supernatants were measured in 96-well plates with BCA™ Protein Assay as recommended by the manufacturer. 30 μg of proteins were boiled in Laemmli sample buffer (Bio-Rad, Hercules, Calif.) with 2.5% 2-mercaptoethanol for 5 min at 95° C. before being separated by Criterion TGX 10% Tris/glylcine protein gel. Membranes were probed with 1/1000 rabbit anti-human caspase-9 polyclonal antibody followed by 1/10,000 HRP-conjugated goat anti-rabbit IgG F(ab′)2 secondary antibody (Bio-Rad). Protein bands were detected using Supersignal West Femto chemiluminescent substrate. To ensure equivalent sample loading, blots were stripped at 65° C. for 1 hour with Restore PLUS Western Blot Stripping Buffer before labeling with 1/10,000 rabbit anti-actin polyclonal antibody. Unless otherwise stated, all the reagents were purchased from Thermo Scientific.

## COC(=O)C[C@H](NC(=O)[C@H](C)NC(=O)[C@@H](NC(=O)OCc1ccccc1)C(C)C)C(=O)CF [zVAD-fmk] (Cbz-Val-Ala-Asp(OMe)-CH2F)
[1]
  effect on CID-induced apoptosis: inhibited

B1: D330E: chimeric modified caspase-9 polypeptide variant (protein)
chain: VDGFGDVGALESLRGNADLAYILSMEPCGHCLIINNVNFCRESGLRTRTGSNIDCEKLRRRFSSLHFMVEVKGDLTAKKMVLALLELARQDHGALDCCVVVILSHGCQASHLQFPGAVYGTDGCPVSVEKIVNIFNGTSCPSLGGKPKLFFIQACGGEQKDHGFEVASTSPEDESPGSNPEPDATPFQEGLRTFDQLEAISSLPTPSDIFVSYSTFPGFVSWRDPKSGSWYVETLDDIFEQWAHSEDLQSLLLRVANAVSVKGIYKQMPGCFNFLRKKLFFKTSASRA
HEK293T/16 cells [2]
  basal activity / basal signaling (in words): less basal activity than wild type caspase-9; also recorded: statistically lower basal signaling
PG13 packaging cells
  CD19 mean fluorescence intensity (MFI) of transduced PG13 cells: enhanced CD19 mean fluorescence intensity
  viral titers: higher viral titers
Human CD3+CD19+ T cells
  in vivo cytotoxicity profile in response to AP1903: titratable in vivo

B2: F404Y: chimeric modified caspase-9 polypeptide variant (protein)
chain: B1 chain with E198D, F272Y
HEK293T/16 cells [2]
  basal activity / basal signaling (in words): lower basal signaling than WT
Activated T cells
  T cell proliferation and survival: indistinguishable from wild type caspase-9 polypeptide or D330A

B3: F404W: chimeric modified caspase-9 polypeptide variant (protein)
chain: B1 chain with E198D, F272W
HEK293T/16 cells [2]
  basal activity / basal signaling (in words): lower basal signaling than WT

B4: F406T: chimeric modified caspase-9 polypeptide variant (protein)
chain: B1 chain with E198D, F274T
HEK293T/16 cells [2]
  basal activity / basal signaling (in words): lower basal signaling than WT

B5: D330A: ΔCasp9 (res. 135-416) D330A, SEQ ID NO: 24 (protein)
chain: GFGDVGALESLRGNADLAYILSMEPCGHCLIINNVNFCRESGLRTRTGSNIDCEKLRRRFSSLHFMVEVKGDLTAKKMVLALLELARQDHGALDCCVVVILSHGCQASHLQFPGAVYGTDGCPVSVEKIVNIFNGTSCPSLGGKPKLFFIQACGGEQKDHGFEVASTSPEDESPGSNPEPDATPFQEGLRTFDQLAAISSLPTPSDIFVSYSTFPGFVSWRDPKSGSWYVETLDDIFEQWAHSEDLQSLLLRVANAVSVKGIYKQMPGCFNFLRKKLFFKTS
HEK293T/16 cells [2]; 1 μg iCasp9 per million cells
  relative SEAP activity Units (basal activity): 148928
HEK293T/16 cells [2]; 2 μg iCasp9 per million cells
  relative SEAP activity Units (basal activity): 136863
HEK293T/16 cells [2]
  basal activity / basal signaling (in words): low to undetectable basal activity; also recorded: lowered basal activity, but not as low as in N405Q; also recorded: less basal activity than wild type caspase-9; also recorded: lower basal activity; also recorded: lower basal signaling compared to the wild-type caspase-9; also recorded: statistically lower basal signaling
PG13 packaging cells
  CD19 mean fluorescence intensity (MFI) of transduced PG13 cells: enhanced CD19 mean fluorescence intensity
  viral titers: higher viral titers
Activated T cells
  T cell proliferation and survival: halted T cell proliferation

B6: N405Q: ΔCasp9 (res. 135-416) N405Q, SEQ ID NO: 26 (protein)
chain: B5 chain with A196D, N271Q
HEK293T/16 cells [2]; 1 μg iCasp9 per million cells
  relative SEAP activity Units (basal activity): 179081
HEK293T/16 cells [2]; 2 μg iCasp9 per million cells
  relative SEAP activity Units (basal activity): 175529
HEK293T/16 cells [3]
  cleavage in response to AP1903: impaired cleavage
PG13 packaging cells
  CD19 mean fluorescence intensity (MFI) of transduced PG13 cells: higher levels of CD19; also recorded: enhanced CD19 mean fluorescence intensity; also recorded: higher CD19 MFIs than the other cohorts
  viral titers: higher viral titers
Activated T cells
  T cell proliferation and survival: indistinguishable from wild type caspase-9 polypeptide or D330A

B7: D330A-N405Q: ΔCasp9 (res. 135-416) D330A N405Q, SEQ ID NO: 28 (protein)
chain: B5 chain with N271Q
HEK293T/16 cells [2]; 1 μg iCasp9 per million cells
  relative SEAP activity Units (basal activity): 205772
HEK293T/16 cells [2]; 2 μg iCasp9 per million cells
  relative SEAP activity Units (basal activity): 174366
HEK293T/16 cells [2]
  basal activity / basal signaling (in words): intermediate; also recorded: lower basal signaling compared to the wild-type caspase-9
HEK293T/16 cells [2]; listed as D330A N405Q
  basal activity / basal signaling (in words): low to undetectable basal activity
HEK293T/16 cells [3]
  cleavage in response to AP1903: impaired cleavage
